Laboratory results reported in patent publication US20120329854A1 (UNIVERSIT TSKLINIKUM FREIBURG, published 2012).

What was measured:
[1] = target: Protein-kinase-C-related kinase 1 (PRK1), endogenous in LNCaP cells (human, UniProt Q16512 2-942); assay: Re-ChIP in LNCaP cells, first α-PKCβI then α-PRK1
Procedure: (§1) ChIP and Re-ChIP experiments were performed as described³. LNCaP cells were cultured for 15 min (ChIP) or 210 min (Re-ChIP) in the presence or absence of 1×10⁻⁸M R1881 as indicated. Three days before harvesting, cells were transfected with siRNA (control for PKCβI: 5′-[…]-3′(SEQ ID NO 3); PKCβI: 5′-[…]-3′ (SEQ ID NO 4) (FIG. 3 b, c, f-i); control for PRK1: 5′-[…]-3′ (SEQ ID NO 14); PRK1: 5′-[…]-3′ (SEQ ID NO: 15) (FIG. 3 d, e); Invitrogen) using RNAifect (Qiagen) following the manufacturer's instructions. Immunoprecipitation was performed with specific antibodies (α-AR #06-680 lot 33529 (Upstate Biotechnology), α-H3K4me1 #ab8895 lot 535654, α-H3T6ph #ab14102 lot 481643, α-H3 #ab1791 lot 172452, α-PKCβI S660ph #ab23513 lot 596904 (Abcam), α-PKCβI (C-16) #sc-209 lot 481643, (Santa Cruz), α-H3K4me2 #cs-035-100 lot A391001 (Diagenode), α-PRK1³, and α-LSD1²) on protein A-Sepharose 4B (GE-Healthcare). For PCR, 2 μl out of 50 μl DNA extract was used. PCR primers for FKBP5 (+351/+443), KLK2 (−343/−90), SCN1A, SCN2A, GAPDH, and U6 were described previously^{1, 2, 6, 11}.
It was recently shown by the inventors that PRK1 is a gatekeeper for regulation of AR target gene expression³. PRK1 controls multiple processes during AR-dependent transcription, such as transition from the RNA polymerase II pre-initiation to the initiation complex and demethylation at lysine 9 of histone H3 (H3K9)³. […]

[2] = target: LSD1, endogenous in LNCaP cells (human, UniProt O60341 1-852); assay: Re-ChIP in LNCaP cells, first α-PKCβI then α-LSD1, KLK2 and FKBP5 promoters
Procedure: as §1
Therefore, it was investigated whether PKCβI is present at AR target genes and phosphorylates H3T6 in vivo. To analyse first whether PKCβI binds to promoters of AR target genes, LNCaP cells were subjected to chromatin immunoprecipitation (ChIP) in the presence or absence of the AR agonist R1881. […]

Sequence of Protein-kinase-C-related kinase 1 (PRK1), endogenous in LNCaP cells (Q16512 2-942 limits assumed): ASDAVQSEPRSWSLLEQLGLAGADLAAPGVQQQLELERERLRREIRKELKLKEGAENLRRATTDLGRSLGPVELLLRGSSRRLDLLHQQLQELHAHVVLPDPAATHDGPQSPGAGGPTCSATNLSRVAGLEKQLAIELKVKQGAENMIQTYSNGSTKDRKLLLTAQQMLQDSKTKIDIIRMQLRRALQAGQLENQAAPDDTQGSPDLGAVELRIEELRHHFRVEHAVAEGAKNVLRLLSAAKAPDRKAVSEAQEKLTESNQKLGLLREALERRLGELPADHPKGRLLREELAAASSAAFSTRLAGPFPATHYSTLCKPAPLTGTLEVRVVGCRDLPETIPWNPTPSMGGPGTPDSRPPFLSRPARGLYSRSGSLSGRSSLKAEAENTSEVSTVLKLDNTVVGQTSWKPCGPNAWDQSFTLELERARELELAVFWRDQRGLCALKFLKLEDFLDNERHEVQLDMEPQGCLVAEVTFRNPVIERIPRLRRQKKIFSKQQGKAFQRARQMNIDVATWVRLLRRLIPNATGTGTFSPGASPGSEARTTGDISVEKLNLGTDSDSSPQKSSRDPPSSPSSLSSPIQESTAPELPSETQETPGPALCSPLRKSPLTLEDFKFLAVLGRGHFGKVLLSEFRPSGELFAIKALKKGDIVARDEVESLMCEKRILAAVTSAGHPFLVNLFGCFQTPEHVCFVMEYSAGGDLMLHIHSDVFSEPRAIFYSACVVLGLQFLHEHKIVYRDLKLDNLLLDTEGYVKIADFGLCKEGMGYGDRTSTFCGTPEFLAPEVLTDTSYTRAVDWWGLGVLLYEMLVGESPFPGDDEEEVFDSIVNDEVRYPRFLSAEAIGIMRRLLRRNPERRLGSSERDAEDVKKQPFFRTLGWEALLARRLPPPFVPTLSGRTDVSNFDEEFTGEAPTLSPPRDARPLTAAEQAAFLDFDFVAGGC

B1: protein kinase C beta 1 (PKCβI), endogenous in LNCaP cells (enzyme)
chain: not shown
notes: here the endogenous protein on chromatin of LNCaP human prostate cancer cells; also called protein kinase C βI; PKCβ1
[1]
  binding result: binds
[2]
  binding result: binds
